Here are results for one substance from US20050048627A1.

This experiment deals with MMP-2 (UniProt P08253). Briefly: cell-based or functional assay.
UniProt P08253, sequence (P08253 110-660 limits assumed): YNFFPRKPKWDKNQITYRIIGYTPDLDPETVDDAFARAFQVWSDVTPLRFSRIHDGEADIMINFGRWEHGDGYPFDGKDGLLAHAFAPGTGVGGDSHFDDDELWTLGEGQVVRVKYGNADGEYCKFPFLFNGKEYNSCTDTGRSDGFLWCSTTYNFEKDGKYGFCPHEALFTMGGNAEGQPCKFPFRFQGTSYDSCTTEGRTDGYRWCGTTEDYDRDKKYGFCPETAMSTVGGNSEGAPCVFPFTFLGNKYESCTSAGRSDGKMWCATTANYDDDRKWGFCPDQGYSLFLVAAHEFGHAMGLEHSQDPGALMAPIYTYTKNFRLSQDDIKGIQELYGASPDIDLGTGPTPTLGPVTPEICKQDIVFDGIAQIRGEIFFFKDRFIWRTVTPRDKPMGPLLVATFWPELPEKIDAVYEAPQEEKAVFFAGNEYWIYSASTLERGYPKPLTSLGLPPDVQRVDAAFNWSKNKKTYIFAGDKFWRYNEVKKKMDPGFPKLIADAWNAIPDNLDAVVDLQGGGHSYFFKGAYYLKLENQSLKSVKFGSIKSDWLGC

For “human serum albumin-TIMP2 fusion protein”, the inhibition of MMP-2 activity (spectrofluorometric assay, 10 nM MMP-2, 10 µM MCA-Pro-Leu-Gly-Leu-Dap(Dnp)-Ala-Arg-NH2 substrate) at 7.5 µg/ml HSA-TIMP2 is 37% and the inhibition of MMP-2 activity (spectrofluorometric assay, 10 nM MMP-2, 10 µM MCA-Pro-Leu-Gly-Leu-Dap(Dnp)-Ala-Arg-NH2 substrate) at 15 µg/ml HSA-TIMP2 stood at 55%.
